Target: Rac1 (endogenous in HUVEC lysate) (human, UniProt P63000 1-189)
Experiment: co-immunoprecipitation with anti-FGD5 antibody from lysates of FGD5 overexpressing HUVECs, western blot
Protocol: GTP-RhoA, Rac1, and cdc42 activation levels were measured using the G-lisa detection system (Tebu-Bio, The Netherlands). For FGD5-protein complex co-immunoprecipitation, magnetic beads (Dynabeads, Invitrogen, The Netherlands) were coated and cross-linked with 2.5 μg anti-FGD5 antibody (Bioscience, The Netherlands) before immunoprecipitation overnight at 4° C. with protein cell lysates of transfected HUVECs (50 μg total protein of a volume of 100 μl incubation buffer). Beads were washed and the protein samples were eluted with eluation buffer (Invitrogen, The Netherlands) before analysis by western blot.

B1: FYVE, RhoGEF and PH domain-containing 5 (FGD5), human, overexpressed in HUVECs by adenovirus (Ad-FGD5) (other)
chain: MFRGPKPPIAPKPRLTAPNEWRASVYLNDSLNKCSNGRLPCVDRGLDEGPRSIPKCSESETDEDYIVVPRVPLREDEPKDEGSVGNKALVSPESSAEEEEEREEGGEACGLEGTGAGEDSVAPAAPGAGALSREGEEGTDLALEDEGEGCADEPGTLEQVSRSEEEEKLVQPHRECSLEDSGPWAGEGVFQSDLLLPHIHGEDQEPPDTPGEAEEDDEEGCASTDPAGADEGSGPDRPTEDMGQDAEDTSEEPPEKEELAGVQEAETATDCPEVLEEGCEEATGVTGGEQVDLSEPPDHEKKTNQEVAAATLEDHAQDESAEESCQIVPFENDCMEDFVTSLTGSPYEFFPTESTSFCSESCSPLSESAKGLESEQAPKLGLRAEENPMVGALCGQCGSLQGGAAEGPAAPDVVVVLEEEALDDALANPYVMGVGLPGQAAPGEGGQAASDALGGYGSKEELNCEAEGGLVPADRKNTSTRVRPHSGKVAGYVPETVPEETGPEAGSSAPGIGGAAEEVGKTLLSLEGKPLEASRALPAKPRAFTLYPRSFSVEGREIPVSVYQEPEGSGLDDHRIKRKEDNLSLSCVIGSSGSFSQRNHLPSSGTSTPSSMVDIPPPFDLACITKKPITKSSPSLLIESDSPDKYKKKKSSFKRFLALTFKKKTENKLHVDVNVSSSRSSSESSYHGPSRILEVDRRSLSNSPQLKSRTGKLRASESPSSLIFYRDGKRKGVPFSRTVSRVESFEDRSRPPFLPLPLTKPRSISFPSADTSDYENIPAMNSDYENIQIPPRRPARAGAFTKLFEDQSRALSTANENDGYVDMSSFNAFESKQQSADQDAESAYTEPYKVCPISSAAPKEDLTSDEEQRSSEEEDSASRDPSVTHKVEGQSRALVIAQELLSSEKAYVEMLQHLNLDFHGAVMRALDDMDHEGRDTLAREELRQGLSELPAIHDLHQGILEELEERLSNWESQQKVADVFLAREQGFDHHATHILQFDRYLGLLSENCLHSPRLAAAVREFEQSVQGGSQTAKHRLLRVVQRLFQYQVLLTDYLNNLCPDSAEYDNTQGALSLISKVTDRANDSMEQGENLQKLVHIEHSVRGQGDLLQPGREFLKEGTLMKVTGKNRRPRHLFLMNDVLLYTYPQKDGKYRLKNTLAVANMKVSRPVMEKVPYALKIETSESCLMLSASSCAERDEWYGCLSRALPEDYKAQALAAFHHSVEIRERLGVSLGERPPTLVPVTHVMMCMNCGCDFSLTLRRHHCHACGKIVCRNCSRNKYPLKYLKDRMAKVCDGCFGELKKRGRAVPGLMRERPVSMSFPLSSPRFSGSAFSSVFQSINPSTFKKQKKVPSALTEVAASGEGSAISGYLSRCKRGKRHWKKLWFVIKGKVLYTYMASEDKVALESMPLLGFTIAPEKEEGSSEVGPIFHLYHKKTLFYSFKAEDTNSAQRWIEAMEDASVL
notes: Guanine-nucleotide exchange factor; Made with the pAd/CMV/V5 gateway system; also called Ad-FGD5 transgene product
binding result: no binding

— US20110123534A1 (ERASMUS UNIVERSITY MEDICAL CENTER ROTTERDAM, published 2011)
